Measured values as given in publication PMC5454392, “Selective BET bromodomain inhibition as an antifungal therapeutic strategy” (Nature Communications, 2017).
Numbered stars: 1 amine (or outer) side, 2 acyl side, 3 side chain; on linkers, the order of the positions; unused ones are H or OH. Square brackets hold non-standard residues; d marks the D form. Ends that are not written are not given here. Arg(Me2a) = CN(C)C(=N)NCCC[C@H](N)C(=O)O; Kac = CC(=O)NCCCC[C@H](N[*:1])C(=O)[*:2]; Arg(Me2s) = CN=C(NC)NCCC[C@H](N)C(=O)O; pT = C[C@@H](OP(=O)(O)O)[C@H](N)C(=O)O; Lys(Me2) = CN(C)CCCC[C@H](N)C(=O)O; pS = N[C@@H](COP(=O)(O)O)C(=O)O; Lys(Me) = CNCCCC[C@H](N)C(=O)O; Me2a = not defined here; me2a = not defined here

T1: CaBdf1 BD2 (GST-tagged, wild-type) (Candida albicans (strain SC5314 / ATCC …, UniProt Q5A4W8))
T1 chain: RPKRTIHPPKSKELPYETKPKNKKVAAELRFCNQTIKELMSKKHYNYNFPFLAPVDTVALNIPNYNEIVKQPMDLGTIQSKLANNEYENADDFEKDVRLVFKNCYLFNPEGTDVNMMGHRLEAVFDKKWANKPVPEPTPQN

T2: CaBdf1 BD1 (GST-tagged, wild-type) (Candida albicans (strain SC5314 / ATCC …, UniProt Q5A4W8))
T2 chain: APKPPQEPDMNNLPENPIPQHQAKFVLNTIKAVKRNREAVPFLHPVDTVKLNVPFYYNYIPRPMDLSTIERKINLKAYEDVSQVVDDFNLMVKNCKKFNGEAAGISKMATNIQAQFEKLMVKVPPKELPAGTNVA


Biological target: T1, CaBdf1 BD2 (GST-tagged, wild-type)
Assay: histone peptide array (Active Motif MODified), 1 uM GST-tagged bromodomain, anti-GST detection, normalized mean intensity

Binder	binding score
ARTKQTARKSTGGKAPRKQ (A Rme2s T Kme2 Q T A Rme2s Kme1 S T G G K A P R K Q)	0.00407
ARTK(Me2)QTARKSTGGKAPRKQ	0.00148
A[Arg(Me2a)]T[Lys(Me)]QTAR[Kac]STGGKAPRKQ	0.00592
PRKQLATKAARK(Me3)SAPATGG	0.00851
ARTK(Me3)QTAR(Me2a)K(Ac)STGGKAPRKQ (reading uncertain)	0.00888
ARTKQTARKSTGGKAPRKQ (A Rme2a T Kme1 Q T A R Kme2 S T G G K A P R K Q)	0.0037
SGRGKGGKGLGKGGAKRHR (pS G R G K G G K G L G K G G A K R H R)	0.00444
SGRGKGGKGLGKGGAKRHR (S G R G Kac G G Kac G L G Kac G G A K R H R)	0.179
A[Arg(Me2s)][pT]K(Me)QTARKSTGGKAPRKQ	0.0037
ARTKQTARKSTGGKAPRKQ (A Rme2s T Kme2 Q T A Rme2a Kme2 S T G G K A P R K Q)	0.00666
PDPAK(Ac)SAPAPKKG[pS]K(Ac)KAVT	0.174
ARTK(me2)QTAR(me2a)K(me2)STGGKAPRKQ (reading uncertain)	0.00259
ARTKQTARKSTGGKAPRKQ (A R T K Q T A R K S pT G G Kac A P R K Q)	0.00999
SGRGKGGKGLGKGGAKRHR (S G Rme2s G K G G Kac G L G K G G A K R H R)	0.00777
ARTKQTARKSTGGKAPRKQ (A Rme2a T Kme1 Q T A Rme2a K S T G G K A P R K Q)	0.00259
ARTKQTARKSTGGKAPRKQ (A R T K Q T A R Kac S T G G K A P R K Q)	0.0037
ARTKQTARKSTGGKAPRKQ (A Rme2a T Kac Q T A R Kme2 S T G G K A P R K Q)	0.00407
SGRGKGGKGLGKGGAKRHR (S G R G K G G Kac G L G K G G A Kac R H R)	0.00999
SGRGKGGKGLGKGGAKRHR (pS G R G Kac G G K G L G K G G A K R H R)	0.00555

Binder	binding score
ARTKQTARKSTGGKAPRKQ (not fully specified)	0.00259
ARTKQTARKSTGGKAPRKQ (A R T K Q T A Rme2s Kme1 S pT G G K A P R K Q)	0.00407
A[Arg(Me2s)]T[Lys(Me2)]QTARKSTGGKAPRKQ	0
PRKQLATKAARK[pS]APATGG	0.00555
A[Arg(Me2s)][pT]KQTARKSTGGKAPRKQ	0.00074
ARTKQTARKSTGGKAPRKQ (A R T K Q T A R Kme3 pS T G G K A P R K Q)	0.00333
ARTKQTARKSTGGKAPRKQ (A R T K Q T A Rme2a K S T G G K A P R K Q)	0.00222
PRKQLATKAA[Arg(Me2a)]K[pS]APATGG	0.00407
A[Arg(Me2a)]T[Lys(Me2)]QTAR[Lys(Me2)]STGGKAPRKQ	0.00222
RKSAPATGGVKKPHRYRPG (R K S A P A T G G V Kac K P H R Y R P G) [H3 26-45]	0.0122
PDPAK(Ac)SAPAPKKG[pS]KKAVT	0.00074
A[Arg(Me2a)]T[Lys(Me)]QTA[Arg(Me2s)][Lys(Me)]STGGKAPRKQ	0.0037
PRKQLATKAAR(Me2s)K(Me2)SAPATGG	0.00222
ARTKQTARKSTGGKAPRKQ (A Rme2s T Kme3 Q T A Rme2s Kme2 S T G G K A P R K Q)	0.00407
AR(me2a)TK(Ac)QTAR(me2a)K(me2)STGGKAPRKQ (reading uncertain)	0.00703
AR(Me2a)TK(Ac)QTAR(Me2a)K(Ac)STGGKAPRKQ (reading uncertain)	0.0107
ARTKQTARKSTGGKAPRKQ (A R T K Q T A Rme2a Kme2 pS T G G K A P R K Q)	0.00259
SGRGKGGKGLGKGGAKRHR (S G Rme2s G K G G K G L G K G G A K R H R)	0.00666
ARTKQTARKSTGGKAPRKQ (A R T Kme3 Q T A Rme2s Kme2 S T G G K A P R K Q)	0.00407

Biological target: T2, CaBdf1 BD1 (GST-tagged, wild-type)
Assay: as above

Binder	binding score
ARTKQTARKSTGGKAPRKQ (A Rme2s T Kme2 Q T A Rme2s Kme1 S T G G K A P R K Q)	0.00544
ARTK(Me2)QTARKSTGGKAPRKQ	0.00181
A[Arg(Me2a)]T[Lys(Me)]QTAR[Kac]STGGKAPRKQ	0.0359
PRKQLATKAARK(Me3)SAPATGG	0.00616
ARTK(Me3)QTAR(Me2a)K(Ac)STGGKAPRKQ (reading uncertain)	0.0359
ARTKQTARKSTGGKAPRKQ (A Rme2a T Kme1 Q T A R Kme2 S T G G K A P R K Q)	0.00326
SGRGKGGKGLGKGGAKRHR (pS G R G K G G K G L G K G G A K R H R)	0.00471
SGRGKGGKGLGKGGAKRHR (S G R G Kac G G Kac G L G Kac G G A K R H R)	0.0729
A[Arg(Me2s)][pT]K(Me)QTARKSTGGKAPRKQ	0.00181
ARTKQTARKSTGGKAPRKQ (A Rme2s T Kme2 Q T A Rme2a Kme2 S T G G K A P R K Q)	0.0029
PDPAK(Ac)SAPAPKKG[pS]K(Ac)KAVT	0.0656
ARTK(me2)QTAR(me2a)K(me2)STGGKAPRKQ (reading uncertain)	0.000725
SGRGKGGKGLGKGGAKRHR (S G Rme2s G K G G Kac G L G K G G A K R H R)	0.0152
ARTKQTARKSTGGKAPRKQ (A Rme2a T Kme1 Q T A Rme2a K S T G G K A P R K Q)	0.00435
ARTKQTARKSTGGKAPRKQ (A Rme2a T Kac Q T A Rme2s Kme2 S T G G K A P R K Q)	0.00616
ARTKQTARKSTGGKAPRKQ (A R T K Q T A R Kac S T G G K A P R K Q)	0.0087
ARTKQTARKSTGGKAPRKQ (A Rme2a T Kac Q T A R Kme2 S T G G K A P R K Q)	0.0112
SGRGKGGKGLGKGGAKRHR (S G R G K G G Kac G L G K G G A Kac R H R)	0.0228
SGRGKGGKGLGKGGAKRHR (pS G R G Kac G G K G L G K G G A K R H R)	0.0167

Binder	binding score
ARTKQTARKSTGGKAPRKQ (not fully specified)	0
ARTKQTARKSTGGKAPRKQ (A R T K Q T A Rme2s Kme1 S pT G G K A P R K Q)	0.0029
A[Arg(Me2s)]T[Lys(Me2)]QTARKSTGGKAPRKQ	0.0029
PRKQLATKAARK[pS]APATGG	0.00218
A[Arg(Me2s)][pT]KQTARKSTGGKAPRKQ	0.00326
ARTKQTARKSTGGKAPRKQ (A R T K Q T A R Kme3 pS T G G K A P R K Q)	0.00363
ARTKQTARKSTGGKAPRKQ (A R T K Q T A Rme2a K S T G G K A P R K Q)	0.00326
PRKQLATKAA[Arg(Me2a)]K[pS]APATGG	0.00435
A[Arg(Me2a)]T[Lys(Me2)]QTAR[Lys(Me2)]STGGKAPRKQ	0.00399
RKSAPATGGVKKPHRYRPG (R K S A P A T G G V Kac K P H R Y R P G) [H3 26-45]	0.0344
PDPAK(Ac)SAPAPKKG[pS]KKAVT	0.00689
A[Arg(Me2a)]T[Lys(Me)]QTA[Arg(Me2s)][Lys(Me)]STGGKAPRKQ	0.00471
PRKQLATKAAR(Me2s)K(Me2)SAPATGG	0.00254
ARTKQTARKSTGGKAPRKQ (A Rme2s T Kme3 Q T A Rme2s Kme2 S T G G K A P R K Q)	0.0029
AR(Me2a)TK(Ac)QTAR(Me2a)K(Ac)STGGKAPRKQ (reading uncertain)	0.0413
ARTKQTARKSTGGKAPRKQ (A R T K Q T A Rme2a Kme2 pS T G G K A P R K Q)	0.00471
SGRGKGGKGLGKGGAKRHR (S G Rme2s G K G G K G L G K G G A K R H R)	0.00399
ARTKQTARKSTGGKAPRKQ (A R T Kme3 Q T A Rme2s Kme2 S T G G K A P R K Q)	0.00254
